Where a chain is given by its changes, count along the chain named. Names may count otherwise.
T1: TNFR1 (Homo sapiens, UniProt P19438)
T1 chain: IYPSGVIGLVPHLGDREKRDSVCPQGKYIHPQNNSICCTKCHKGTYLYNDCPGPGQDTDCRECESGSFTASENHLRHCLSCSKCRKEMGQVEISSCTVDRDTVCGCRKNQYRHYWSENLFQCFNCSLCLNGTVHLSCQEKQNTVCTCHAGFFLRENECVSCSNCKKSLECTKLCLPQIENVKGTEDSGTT

B1: K41R (designed binder)
chain: SMEEEVEKAAKEYEKKKKEAIEKHLEKLKAKDKEAAERFLRELEEAAKEYAKDEAKTMSEEEAKRRAKKYKEKVLLSELSEEEQKEIKEAEEKLVRTILKYVEEAAK
B2: R66I (designed binder)
chain: B1 chain with R41K, R66I
B3: E44H (designed binder)
chain: B1 chain with R41K, E44H
B4: L99H (designed binder)
chain: B1 chain with R41K, L99H
B5: S59C (designed binder)
chain: B1 chain with R41K, S59C
B6: I21H (designed binder)
chain: B1 chain with I21H, R41K
B7: H24E (designed binder)
chain: B1 chain with H24E, R41K
B8: L76D (designed binder)
chain: B1 chain with R41K, L76D
B9: I21P (designed binder)
chain: B1 chain with I21P, R41K
B10: E7C (designed binder)
chain: B1 chain with E7C, R41K
B11: L94V (designed binder)
chain: B1 chain with R41K, L94V
B12: E4M (designed binder)
chain: B1 chain with E4M, R41K
B13: K18W (designed binder)
chain: B1 chain with K18W, R41K
B14: E89V (designed binder)
chain: B1 chain with R41K, E89V
B15: V6W (designed binder)
chain: B1 chain with V6W, R41K
B16: K16N (designed binder)
chain: B1 chain with K16N, R41K
B17: Y70R (designed binder)
chain: B1 chain with R41K, Y70R
B18: A63F (designed binder)
chain: B1 chain with R41K, A63F
B19: E42G (designed binder)
chain: B1 chain with R41K, E42G
B20: K29W (designed binder)
chain: B1 chain with K29W, R41K
B21: E89Q (designed binder)
chain: B1 chain with R41K, E89Q
B22: E14W (designed binder)
chain: B1 chain with E14W, R41K
B23: I98W (designed binder)
chain: B1 chain with R41K, I98W
B24: K52W (designed binder)
chain: B1 chain with R41K, K52W
B25: L76A (designed binder)
chain: B1 chain with R41K, L76A
B26: L94W (designed binder)
chain: B1 chain with R41K, L94W
B27: E92M (designed binder)
chain: B1 chain with R41K, E92M
B28: E49Q (designed binder)
chain: B1 chain with R41K, E49Q
B29: K41C (designed binder)
chain: B1 chain with R41C
B30: A51L (designed binder)
chain: B1 chain with R41K, A51L
B31: A105E (designed binder)
chain: B1 chain with R41K, A105E
B32: A90R (designed binder)
chain: B1 chain with R41K, A90R
B33: A105Y (designed binder)
chain: B1 chain with R41K, A105Y
B34: A35M (designed binder)
chain: B1 chain with A35M, R41K
B35: E82D (designed binder)
chain: B1 chain with R41K, E82D
B36: K107W (designed binder)
chain: B1 chain with R41K, K107W
B37: H24D (designed binder)
chain: B1 chain with H24D, R41K
B38: E42M (designed binder)
chain: B1 chain with R41K, E42M
B39: E12P (designed binder)
chain: B1 chain with E12P, R41K
B40: Q84R (designed binder)
chain: B1 chain with R41K, Q84R
B41: K48S (designed binder)
chain: B1 chain with R41K, K48S
B42: T57G (designed binder)
chain: B1 chain with R41K, T57G
B43: K88G (designed binder)
chain: B1 chain with R41K, K88G
B44: K27C (designed binder)
chain: B1 chain with K27C, R41K
B45: Y70Q (designed binder)
chain: B1 chain with R41K, Y70Q
B46: K33D (designed binder)
chain: B1 chain with K33D, R41K
B47: T57C (designed binder)
chain: B1 chain with R41K, T57C
B48: E62R (designed binder)
chain: B1 chain with R41K, E62R
B49: K11C (designed binder)
chain: B1 chain with K11C, R41K
B50: L28D (designed binder)
chain: B1 chain with L28D, R41K
B51: E19D (designed binder)
chain: B1 chain with E19D, R41K
B52: D32A (designed binder)
chain: B1 chain with D32A, R41K
B53: K69A (designed binder)
chain: B1 chain with R41K, K69A
B54: Y50D (designed binder)
chain: B1 chain with R41K, Y50D
B55: L25R (designed binder)
chain: B1 chain with L25R, R41K
B56: H24P (designed binder)
chain: B1 chain with H24P, R41K
B57: T57Q (designed binder)
chain: B1 chain with R41K, T57Q
B58: L94A (designed binder)
chain: B1 chain with R41K, L94A
B59: E7R (designed binder)
chain: B1 chain with E7R, R41K

Molecular target: T1, TNFR1
Assay: yeast display SC50

| apparent Kd (screen) | Binder |
| --- | --- |
| 0.869 nM | B1 |
| 22.2 nM | B2 |
| 3 nM | B3 |
| 4.83 nM | B4 |
| 2.73 nM | B5 |
| 1.05 nM | B6 |
| 0.49 nM | B7 |
| 1.16 nM | B8 |
| 13.8 nM | B9 |
| 6.43 nM | B10 |
| 0.446 nM | B11 |
| 0.653 nM | B12 |
| 0.79 nM | B13 |
| 2.73 nM | B14 |
| 0.49 nM | B15 |
| 0.335 nM | B16 |
| 5.31 nM | B17 |
| 10.4 nM | B18 |
| 12.5 nM | B19 |
| 0.869 nM | B20 |

| apparent Kd (screen) | Binder |
| --- | --- |
| 1.05 nM | B21 |
| 10.4 nM | B22 |
| 1.86 nM | B23 |
| 5.31 nM | B24 |
| 4.83 nM | B25 |
| 0.446 nM | B26 |
| 12.5 nM | B27 |
| 3 nM | B28 |
| 0.49 nM | B29 |
| 2.73 nM | B30 |
| 0.446 nM | B31 |
| 0.446 nM | B32 |
| 2.73 nM | B33 |
| 0.446 nM | B34 |
| 1.05 nM | B35 |
| 5.84 nM | B36 |
| 1.4 nM | B37 |
| 12.5 nM | B38 |
| 9.41 nM | B39 |
| 1.4 nM | B40 |

| apparent Kd (screen) | Binder |
| --- | --- |
| 0.446 nM | B41 |
| 10.4 nM | B42 |
| 0.49 nM | B43 |
| 0.593 nM | B44 |
| 5.84 nM | B45 |
| 1.05 nM | B46 |
| 2.73 nM | B47 |
| 0.49 nM | B48 |
| 1.69 nM | B49 |
| 0.956 nM | B50 |
| 0.446 nM | B51 |
| 1.4 nM | B52 |
| 0.49 nM | B53 |
| 7.78 nM | B54 |
| 1.69 nM | B55 |
| 12.5 nM | B56 |
| 0.446 nM | B57 |
| 0.49 nM | B58 |
| 5.84 nM | B59 |

From publication PMC12416549 (2024)
